This note sets out measurements from patent publication EP1073891B1, “METHOD OF PREDICTING RECEPTOR MODULATING ACTIVITY” (Duke University, priority 1998, dated 1999).

Substitutions are numbered along the chain they refer to.

What all share (assay): Mammalian two-hybrid with ERα AF-2 mutants (Examples 4.3, 101.3)
Holding throughout (format): cell-based
What all share (details): mammalian two-hybrid (Fig. 9)

The target in one assay is T1, ER3X (D538N/E542Q/D545N) (Homo sapiens, UniProt P03372, D538N/D545N/E542Q).
T1 construct: expressed in transfected cells
T1 sequence (P03372 1-595 D538N/E542Q/D545N): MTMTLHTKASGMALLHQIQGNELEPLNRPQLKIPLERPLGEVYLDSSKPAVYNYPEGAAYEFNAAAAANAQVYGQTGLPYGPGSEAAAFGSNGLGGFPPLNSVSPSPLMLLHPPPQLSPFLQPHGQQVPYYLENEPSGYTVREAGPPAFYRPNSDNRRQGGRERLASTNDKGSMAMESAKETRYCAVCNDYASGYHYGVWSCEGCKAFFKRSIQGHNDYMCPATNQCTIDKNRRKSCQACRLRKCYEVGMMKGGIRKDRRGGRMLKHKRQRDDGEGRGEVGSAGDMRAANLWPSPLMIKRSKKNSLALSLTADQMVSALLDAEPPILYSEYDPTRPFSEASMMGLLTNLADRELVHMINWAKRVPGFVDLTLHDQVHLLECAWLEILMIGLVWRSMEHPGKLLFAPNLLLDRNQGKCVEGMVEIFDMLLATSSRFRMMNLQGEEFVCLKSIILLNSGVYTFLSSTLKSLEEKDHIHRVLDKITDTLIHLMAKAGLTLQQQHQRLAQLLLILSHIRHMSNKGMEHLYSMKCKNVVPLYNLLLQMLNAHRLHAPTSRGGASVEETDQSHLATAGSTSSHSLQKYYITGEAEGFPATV
An excerpt: (§1) Peptide sequences representing each class was fused to the DNA binding domain (DBD) of the yeast transcription factor Ga14. HepG2 cells were then transiently transfected with expression vectors for ERα-VP16 and the Gal4-peptide fusion proteins. In addition, a luciferase reporter construct under the control of 5 copies of a Ga14 upstream enhancer element was also transfected along with a pCMV-β galactosidase vector to normalize for transfection efficiency. Transfection of the Ga14 DBD alone is included as control. Cells were then induced with various ligands as indicated in the figure and assayed for luciferase activity and β galactosidase activity. Normalized response was obtained by dividing the luciferase activity by the β galactosidase activity.
(§2) Three ERα mutants were compared with wild-type ERα. ER-LL was characterized by mutations L540A/L541A. Mutant ER3X was characterized by mutations D538N/E542Q/D545N. Finally, mutant ER-535 STOP was truncated after residue V535. […] Experimental design is the same as in figure 7 except that either (A) ER3X (B) ERLL or (C) ER535-stop was analyzed for binding to conformation sensitive peptides.
(§3) To test whether different LXXLL motif peptides interact within the same region of ER, mammalian two hybrid assays were used. Selected peptide sequences and different ER mutants (ER-LL, ER-3X, ER-535 STOP) were expressed as fusion proteins to Gal4DBD and VP16 (TAD), respectively.

Another assay deals with T2, ER535-stop (Homo sapiens, UniProt P03372).
T2 construct: mutant ER-535 STOP was truncated after residue V535; expressed in transfected cells
T2 sequence (P03372 1-534): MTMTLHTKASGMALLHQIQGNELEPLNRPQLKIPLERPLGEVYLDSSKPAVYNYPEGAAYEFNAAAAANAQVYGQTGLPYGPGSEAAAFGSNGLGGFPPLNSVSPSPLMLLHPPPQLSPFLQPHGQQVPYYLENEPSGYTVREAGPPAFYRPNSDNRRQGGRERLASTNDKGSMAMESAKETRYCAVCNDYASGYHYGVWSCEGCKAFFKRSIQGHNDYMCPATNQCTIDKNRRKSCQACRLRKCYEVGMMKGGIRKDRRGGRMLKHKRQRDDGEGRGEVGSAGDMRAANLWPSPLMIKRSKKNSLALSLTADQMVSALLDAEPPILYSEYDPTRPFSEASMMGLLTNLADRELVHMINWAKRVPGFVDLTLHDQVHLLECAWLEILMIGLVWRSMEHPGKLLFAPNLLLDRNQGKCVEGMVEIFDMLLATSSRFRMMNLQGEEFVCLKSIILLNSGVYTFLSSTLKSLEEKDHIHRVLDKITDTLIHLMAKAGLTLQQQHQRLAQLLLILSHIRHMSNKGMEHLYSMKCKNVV
Text: as §1, §2, §3

For the next assay, the target named is T3, ERLL (L540A/L541A) (Homo sapiens, UniProt P03372, L540A/L541A).
T3 construct: expressed in transfected cells
T3 sequence (P03372 1-595 L540A/L541A): T1 sequence (P03372 1-595 D538N/E542Q/D545N) with N538D, L540A, L541A, Q542E, N545D
Text: as §1, §2, §3

Take SSLTSRDFGSWYASR [α II]: in the assay with ER3X (D538N/E542Q/D545N), the “interaction with the ER3X mutant receptor” value is recorded as “largely unaffected”. In the assay with ER535-stop, the “interaction with the ER535-stop mutant receptor” value is “largely unaffected”. Also, in the assay with ERLL (L540A/L541A), the “interaction with the ERLL mutant receptor” value is reported as “largely unaffected”.

As for SSPGSREWFKDMLSR [α/β V], the “interaction with the ER3X mutant receptor” value in the assay with ER3X (D538N/E542Q/D545N) is listed as “loss of the tamoxifen specificity”. Further, in the assay with ER535-stop, the “interaction with the ER535-stop mutant receptor” value is “loss of the tamoxifen specificity”. Further, in the assay with ERLL (L540A/L541A), the “interaction with the ERLL mutant receptor” value is “loss of the tamoxifen specificity”.

In the case of SSWDMHQFFWEGVSR [α/β III], the “interaction with the ER3X mutant receptor” value with ER3X (D538N/E542Q/D545N) is on record as “loss of the tamoxifen specificity”. In the assay with ER535-stop, the “interaction with the ER535-stop mutant receptor” value is recorded as “loss of the tamoxifen specificity”. For the same sequence, the “interaction with the ERLL mutant receptor” value in the assay with ERLL (L540A/L541A) is reported as “loss of the tamoxifen specificity”.

Regarding SSNHQSSRLIELLSR [α/β I], the “interaction with the ER3X mutant receptor” value in the assay with ER3X (D538N/E542Q/D545N) was “retains some ability to engage”. In addition, the “interaction with the ER535-stop mutant receptor” value in the assay with ER535-stop is listed as “unable to interact”. Also, the “interaction with the ERLL mutant receptor” value in the assay with ERLL (L540A/L541A) is given as “unable to interact”.
